Measurements: patent EP4786489A1, “IL-22 MUTANT, PREPARATION METHOD THEREFOR, AND USE THEREOF” (Nanjing Novoacine Biotechnology Co., Ltd., priority 2023, dated 2025)

Legend:
ear skin inflammation = conditions: mouse, in vivo
[1] = Mouse PK, plasma concentration by ELISA; format: in vivo; conditions: single s.c. 1 mg/kg, male Balb/C mice
Description: Male Balb/C mice (n = 4 per group) were administered a single subcutaneous injection at a dose of 1 mg/kg. Blood samples were collected before dosing and at 4 (no samples were collected at this time point for 60k-PEG-IL22-D109C and 60k-PEG-IL22-P120C), 8, 24, […], 48, 72, 96, and 120 hours after dosing. Anticoagulated blood was used to prepare plasma.
The concentrations of each test candidate in plasma were quantified by ELISA. Anti-IL22 Antibody (Sino Biological, 13059-MM24), diluted in PBS to 2 µg/mL, was used for coating. Standard curves of each test candidate and plasma samples were diluted to fall within the linear range of detection. Recombinant Anti-IL22 Antibody (Sino Biological, 13059-R034-H) was used for detection. The original concentration of each test candidate in the samples was calculated using a four-parameter fit of the standard curve for each test candidate. Pharmacokinetic parameters of each test candidate in mouse plasma were analyzed (Figure 12). Table 13. Dosing information for the mouse PK study

[2] = system: DSS-induced mouse acute colitis model; assay: Mouse DSS-induced colitis efficacy model; format: in vivo, Balb/C mice
Source text: Balb/C mice were used to evaluate efficacy in a DSS-induced mouse acute colitis model. DSS refers to Dextran Sulfate Sodium Salt (MW: 36,000-50,000). When added to drinking water at an appropriate concentration, DSS disrupts intestinal epithelial cells and induces acute inflammatory bowel disease (IBD) in mice. Therefore, a 4% DSS-induced mouse IBD model was used to evaluate the potential therapeutic efficacy of the test candidates.
Male Balb/C mice were allowed free access to drinking water containing 4% DSS until the average body weight of the model group decreased by approximately 15%. Fresh drinking water was then provided, followed by a 2-day recovery period. Body weight and the severity of loose stool/hematochezia for each mouse were monitored throughout the study (Figure 13), and a composite Disease Activity Index (DAI) was evaluated (Figure 14). At the endpoint, the colon of each mouse was collected and its length measured (Figure 15). The colons were photographed, rolled into a Swiss-roll configuration, fixed in 4% paraformaldehyde, dehydrated, embedded in paraffin, sectioned, and subjected to H&E staining (Figures 17-18). Histological scoring was performed on tissue morphology(Figure 16).
The dosing regimen of the test candidates was as follows (the day of DSS modeling was defined as D1, the previous day as D-1, and so on). Table 15. Dosing information for the mouse DSS-induced colitis model study
Paraffin sections of colon tissues were subjected to H&E staining and histopathological analysis. According to the actual severity of the lesions, the following scoring criteria were used: minimal (1 point), mild (2 points), moderate (3 points), and severe (4 points). Lesion area (%) scoring criteria were defined as: ≥50% (4 points), 25%-50% (3 points), 10%-25% (2 points), and ≤10% (1 point). Inflammation depth scoring criteria were defined as: epithelium (1 point), lamina propria (2 points), and muscularis mucosae (3 points). No lesion was recorded as "-". The score was calculated by summing the scores from the above three dimensions.

STAT3 = STAT3 phosphorylation in HaCaT cells by FACS (tissue activation preference); format: cell-based, Human; conditions: STAT3 activation in HT29 vs HaCaT cells
Description: Human immortalized keratinocyte HaCaT cells were recovered and cultured in MEM/EBSS medium (Cytiva, SH30024.01) supplemented with 15% FBS and 1% P/S (Cytiva, SV30010). When cell confluence reached 70%-80%, cells were digested with 0.25% Trypsin-EDTA (Gibco, 25200-056), terminated with complete medium, and resuspended to […]. After mixed thoroughly, a total of 120 µL per well cells was seeded into a 96-well plate (Corning, 3599) at a density of 1.5 × 10^5 cells per well and incubated overnight at 37°C with 5% CO2.
wt IL-22 was prepared at an initial working concentration of 1000 nM, and the remaining samples were prepared at 10000 nM as the starting concentration. […] After staining at room temperature in the dark for 1 hour, cells were washed twice with 1× PBS and analyzed by flow cytometry to determine the mean fluorescence intensity (MFI).
Tissue activation preference of different test candidates was evaluated by comparing their ability to activate STAT3 in intestinal-derived HT29 cells and skin-derived HaCaT cells. […] The activity of PEGylated IL-22 mutants in activating STAT3 phosphorylation in HaCaT cells at different concentrations as determined by FACS is shown in Figure 8. […] Tissue preference of PEG-IL22 mutants for STAT3 phosphorylation in human intestinal and human skin cell lines determined by FACS

B1: 60K-PEG-IL22-P120C: IL-22 cysteine mutant, conjugation site 87, PEG-maleimide 60kD (conjugate)
chain: APISSHCRLDKSNFQQPYITNRTFMLAKEASLADNNTDVRLIGEKLFHGVSMSERCYLMKQVLNFTLEEVLFPQSDRFQPYMQEVVCFLARLSNRLSTCHIEGDDLHIQRNVQKLKDTVKKLGESGEIKAIGELDLLFMSLRNACI
Q: For B1, which “equivalent dose required to induce a comparable overall increase in ear thickness, relative to IL-22-Fc” value (ear skin inflammation) is on record?
A: approximately 8 fold

Q: What about the “AUClast” value [1] of the same molecule?
A: 105.2029 µg·h/mL

Q: And the “Cmax” value [1]?
A: 4184.95 ng/mL

Q: And the “MRT” value [1]?
A: 20.17 h

Q: And the “T1/2” value [1]?
A: 11.62 h

Q: And the “efficacy compared with 0.03 mg/kg IL-22-Fc (Group G6)” value ([2]; 0.1 mg/kg (Group G4), body weight, DAI, colon length, histological scoring)?
A: superior efficacy

Q: What about the “colon tissue morphology (H&E histology)” value ([2]; 0.1 mg/kg s.c., days 4 and 6 (G4)) of the same molecule?
A: relatively intact

Q: And the “efficacy dose difference relative to IL-22-Fc” value ([2]; 0.1 mg/kg vs 0.03 mg/kg)?
A: 3 fold

Q: And the “efficacy in the mouse DSS-induced acute colitis model” value ([2]; body weight, DAI, colon length, histological scoring)?
A: clear efficacy

Q: What about the “tissue preference compared with IL-22-Fc” value (STAT3) of the same molecule?
A: superior tissue preference
